Test results from PMC2946590, “Replication Past the γ-Radiation-Induced Guanine-Thymine Cross-Link G[8,5-Me]T by Human and Yeast DNA Polymerase η” (Journal of Nucleic Acids, 2010).

B1: human DNA polymerase η (hPol η) (Homo sapiens) (protein)
chain: MATGQDRVVALVDMDCFFVQVEQRQNPHLRNKPCAVVQYKSWKGGGIIAVSYEARAFGVTRSMWADDAKKLCPDLLLAQVRESRGKANLTKYREASVEVMEIMSRFAVIERASIDEAYVDLTSAVQERLQKLQGQPISADLLPSTYIEGLPQGPTTAEETVQKEGMRKQGLFQWLDSLQIDNLTSPDLQLTVGAVIVEEMRAAIERETGFQCSAGISHNKVLAKLACGLNKPNRQTLVSHGSVPQLFSQMPIRKIRSLGGKLGASVIEILGIEYMGELTQFTESQLQSHFGEKNGSWLYAMCRGIEHDPVKPRQLPKTIGCSKNFPGKTALATREQVQWWLLQLAQELEERLTKDRNDNDRVATQLVVSIRVQGDKRLSSLRRCCALTRYDAHKMSHDAFTVIKNCNTSGIQTEWSPPLTMLFLCATKFSASAPSSSTDITSFLSSDPSSLPKVPVTSSEAKTQGSGPAVTATKKATTSLESFFQKAAERQKVKEASLSSLTAPTQAPMSNSPSKPSLPFQTSQSTGTEPFFKQKSLLLKQKQLNNSSVSSPQQNPWSNCKALPNSLPTEYPGCVPVCEGVSKLEESSKATPAEMDLAHNSQSMHASSASKSVLEVTQKATPNPSLLAAEDQVPCEKCGSLVPVWDMPEHMDYHFALELQKSFLQPHSSNPQVVSAVSHQGKRNPKSPLACTNKRPRPEGMQTLESFFKPLTH
notes: recombinant, purchased from Enzymax LLC (Lexington, KY)
B2: yeast DNA polymerase η (yPol η) (Saccharomyces cerevisiae S288C) (protein)
chain: MSKFTWKELIQLGSPSKAYESSLACIAHIDMNAFFAQVEQMRCGLSKEDPVVCVQWNSIIAVSYAARKYGISRMDTIQEALKKCSNLIPIHTAVFKKGEDFWQYHDGCGSWVQDPAKQISVEDHKVSLEPYRRESRKALKIFKSACDLVERASIDEVFLDLGRICFNMLMFDNEYELTGDLKLKDALSNIREAFIGGNYDINSHLPLIPEKIKSLKFEGDVFNPEGRDLITDWDDVILALGSQVCKGIRDSIKDILGYTTSCGLSSTKNVCKLASNYKKPDAQTIVKNDCLLDFLDCGKFEITSFWTLGGVLGKELIDVLDLPHENSIKHIRETWPDNAGQLKEFLDAKVKQSDYDRSTSNIDPLKTADLAEKLFKLSRGRYGLPLSSRPVVKSMMSNKNLRGKSCNSIVDCISWLEVFCAELTSRIQDLEQEYNKIVIPRTVSISLKTKSYEVYRKSGPVAYKGINFQSHELLKVGIKFVTDLDIKGKNKSYYPLTKLSMTITNFDIIDLQKTVVDMFGNQVHTFKSSAGKEDEEKTTSSKADEKTPKLECCKYQVTFTDQKALQEHADYHLALKLSEGLNGAEESSKNLSFGEKRLLFSRKRPNSQHTATPQKKQVTSSKNILSFFTRKK
notes: as for B1

Key:
purified protein [1] = substrate: Nc1ncnc2c1ncn2[C@H]1C[C@H](O)[C@@H](COP(=O)(O)OP(=O)(O)OP(=O)(O)O)O1; test: purified protein; assay type: biochemical, Homo sapiens; conditions: undamaged 26-mer template, misincorporation opposite G, 6.4 nM enzyme, 50 nM template-primer, 25 mM Tris-HCl pH 7.5, 5 mM MgCl2, 5 mM DTT, 37 °C
purified protein [2] = substrate: Nc1ncnc2c1ncn2[C@H]1C[C@H](O)[C@@H](COP(=O)(O)OP(=O)(O)OP(=O)(O)O)O1; test: purified protein; assay type: biochemical, Saccharomyces cerevisiae; conditions: undamaged 26-mer template, misincorporation opposite G, 6.4 nM enzyme, 50 nM template-primer, 25 mM Tris-HCl pH 7.5, 5 mM MgCl2, 5 mM DTT, 37 °C

Protein | Km (purified protein [1]) | kcat (purified protein [1]) | kcat/Km (purified protein [1]) | Km (purified protein [2]) | kcat (purified protein [2]) | kcat/Km (purified protein [2])
B1 | 6.5 ± 0.03 µM | 0.104 ± 0.00017 s⁻¹ | 16000 M⁻¹ s⁻¹ | – | – | –
B2 | – | – | – | 9.5 ± 0.002 µM | 0.0883 ± 0.0005 s⁻¹ | 9330 M⁻¹ s⁻¹
